Laboratory results: paper PMC5094862 (Journal of the American Chemical Society, 2016)

Target: the molecule itself
Assay: SEC

| Protein | binding result |
| --- | --- |
| synthetic L-GroES (natural protein, E. coli, UniProt P0A6F9 1-97, looked up) MNIRPLHDRVIVKRKEVETKSAGGIVLTGSAAAKSTRGEVLAVGNGRILENGEVKPLDVKVGDIVIFNDGYGVKSEKIDNEEVLIMSESDILAIVEA | binds |
| recombinant GroES (natural protein, E. coli, UniProt P0A6F9 1-97, looked up) MNIRPLHDRVIVKRKEVETKSAGGIVLTGSAAAKSTRGEVLAVGNGRILENGEVKPLDVKVGDIVIFNDGYGVKSEKIDNEEVLIMSESDILAIVEA | binds |
